Legend:
Assay in all cases: cell-based or functional assay
FOLR1 [1] = molecular target: T1, FOLR1 (human, UniProt P15328 25-234)
FOLR1 [2] = molecular target: T1, FOLR1; remark: listed apart in the source
HER2 [3] = molecular target: T2, HER2 (human, UniProt P04626 23-1255)
HER2 [4] = molecular target: T2, HER2; remark: listed apart in the source

T1 sequence (P15328 25-234): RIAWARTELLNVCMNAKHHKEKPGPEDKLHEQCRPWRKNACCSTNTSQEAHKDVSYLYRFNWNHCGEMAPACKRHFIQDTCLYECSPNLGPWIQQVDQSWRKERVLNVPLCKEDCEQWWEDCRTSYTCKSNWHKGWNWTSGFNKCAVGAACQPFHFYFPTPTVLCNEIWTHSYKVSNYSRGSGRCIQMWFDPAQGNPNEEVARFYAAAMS

EC50 (pM) for eliciting IFN-γ secretion by T cells, T47D cells (FOLR1 [1]) [pM]	EC50 (pM) for eliciting IL-2 secretion by T cells, T47D cells (FOLR1 [1]) [pM]	EC50 (pM) for eliciting IL-10 secretion by T cells, T47D cells (FOLR1 [1]) [pM]	EC50 (pM) for eliciting IL-13 secretion by T cells, T47D cells (FOLR1 [1]) [pM]	EC50 (pM) for eliciting TNF-α secretion by T cells, T47D cells (FOLR1 [1]) [pM]	EC50 (pM), T cell-dependent cell cytolysis (TDCC), Cal-51 cells (FOLR1 [2]) [pM]	EC50 (pM), T cell-dependent cell cytolysis (TDCC), T47D cells (FOLR1 [2]) [pM]	EC50 (pM), T cell-dependent cell cytolysis (TDCC), JIMT-1 cells (HER2 [3]) [pM]	EC50 (pM), T cell-dependent cell cytolysis (TDCC), T47D cells (HER2 [3]) [pM]	EC50 (pM) for eliciting IFN-γ secretion by T cells, JIMT-1 cells (HER2 [4]) [pM]	EC50 (pM) for eliciting IL-2 secretion by T cells, JIMT-1 cells (HER2 [4]) [pM]	EC50 (pM) for eliciting IL-10 secretion by T cells, JIMT-1 cells (HER2 [4]) [pM]	EC50 (pM) for eliciting IL-13 secretion by T cells, JIMT-1 cells (HER2 [4]) [pM]	EC50 (pM) for eliciting TNF-α secretion by T cells, JIMT-1 cells (HER2 [4]) [pM]	Binder
48.6	67.3	110	127	41.2	1.27	1.35								anti-FOLR1/CD3 Bi-Fc (bispecific antibody) chain 1: not shown chain 2: HMSSVSAQAAAEPKSSDKTHTCPPCPAPEAAGGPSVFLFPPKPKDTLMISRTPEVTCVVVDVSHEDPEVKFNWYVDGVEVHNAKTKPREEQYNSTYRVVSVLTVLHQDWLNGKEYKCKVSNKALPAPIEKTISKAKGQPREPQVYTLPPSREEMTKNQVSLTCLVKGFYPSDIAVEWESNGQPENNYDTTPPVLDSDGSFFLYSDLTVDKSRWQQGNVFSCSVMHEALHNHYTQKSLSLSPGK
							11.5	1.03	32.9	22.3	9.6	16.4	19.5	anti-HER2/CD3 Bi-Fc (bispecific antibody) chain 1: not shown chain 2: HMSSVSAQAAAEPKSSDKTHTCPPCPAPEAAGGPSVFLFPPKPKDTLMISRTPEVTCVVVDVSHEDPEVKFNWYVDGVEVHNAKTKPREEQYNSTYRVVSVLTVLHQDWLNGKEYKCKVSNKALPAPIEKTISKAKGQPREPQVYTLPPSREEMTKNQVSLTCLVKGFYPSDIAVEWESNGQPENNYDTTPPVLDSDGSFFLYSDLTVDKSRWQQGNVFSCSVMHEALHNHYTQKSLSLSPGK

Reference: patent publication US20180230220A1 (Amgen, published 2018)
